Measurements as given in article doi:10.1101/2025.03.17.643633 (bioRxiv, 2025).

Molecular target: T1, TIE1 ectodomain, aa 21-760 (human, UniProt P35590-1 21-760)
T1 sequence: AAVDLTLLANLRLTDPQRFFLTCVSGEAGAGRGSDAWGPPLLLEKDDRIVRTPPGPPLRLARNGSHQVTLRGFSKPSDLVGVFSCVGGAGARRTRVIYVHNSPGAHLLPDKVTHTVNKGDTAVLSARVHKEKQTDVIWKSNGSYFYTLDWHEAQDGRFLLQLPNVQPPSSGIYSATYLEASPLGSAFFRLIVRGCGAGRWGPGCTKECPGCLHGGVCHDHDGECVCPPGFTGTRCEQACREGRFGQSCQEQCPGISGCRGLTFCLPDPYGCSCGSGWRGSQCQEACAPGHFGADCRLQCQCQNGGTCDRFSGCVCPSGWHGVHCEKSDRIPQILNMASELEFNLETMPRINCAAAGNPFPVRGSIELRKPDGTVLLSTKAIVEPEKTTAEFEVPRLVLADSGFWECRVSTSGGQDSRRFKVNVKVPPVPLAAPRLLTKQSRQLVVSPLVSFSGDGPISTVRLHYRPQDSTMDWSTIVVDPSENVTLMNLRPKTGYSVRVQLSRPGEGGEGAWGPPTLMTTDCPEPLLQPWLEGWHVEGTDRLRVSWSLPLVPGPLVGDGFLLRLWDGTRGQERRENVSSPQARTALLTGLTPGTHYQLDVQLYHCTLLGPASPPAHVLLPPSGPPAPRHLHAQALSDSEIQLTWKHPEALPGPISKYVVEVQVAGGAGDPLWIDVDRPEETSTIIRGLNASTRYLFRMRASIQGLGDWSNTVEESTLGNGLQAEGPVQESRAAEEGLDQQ
Test: SPR

B1: Human SVEP1-Strep II recombinant protein, CCP15 to CCP24, aa 2261-2890 (70 kDa version) (domain or fragment)
chain: PLDCGKPPPIQNGFMKGENFEVGSKVQFFCNEGYELVGDSSWTCQKSGKWNKKSNPKCMPAKCPEPPLLENQLVLKELTTEVGVVTFSCKEGHVLQGPSVLKCLPSQQWNDSFPVCKIVLCTPPPLISFGVPIPSSALHFGSTVKYSCVGGFFLRGNSTTLCQPDGTWSSPLPECVPVECPQPEEIPNGIIDVQGLAYLSTALYTCKPGFELVGNTTTLCGENGHWLGGKPTCKAIECLKPKEILNGKFSYTDLHYGQTVTYSCNRGFRLEGPSALTCLETGDWDVDAPSCNAIHCDSPQPIENGFVEGADYSYGAIIIYSCFPGFQVAGHAMQTCEESGWSSSIPTCMPIDCGLPPHIDFGDCTKLKDDQGYFEQEDDMMEVPYVTPHPPYHLGAVAKTWENTKESPATHSSNFLYGTMVSYTCNPGYELLGNPVLICQEDGTWNGSAPSCISIECDLPTAPENGFLRFTETSMGSAVQYSCKPGHILAGSDLRLCLENRKWSGASPRCEAISCKKPNPVMNGSIKGSNYTYLSTLYYECDPGYVLNGTERRTCQDDKNWDEDEPICIPVDCSSPPVSANGQVRGDEYTFQKEIEYTCNEGFLLEGARSRVCLANGSWSGATPDCVPVR
**Q.** How did the Kd turn out when B1 was run?
**A.** 62.5 nM
